Experimental findings from the DeepSol protein solubility set are described below.

A short description of the data set: soluble on expression in E. coli; label from the status in PepcDB or PDB records.
Consider “GMGQQESTLGGAAGEPRSRGHAAGTSGGPGDHLHATPGMFVQHSTAIFSDRYKGQRVLGKGSFGEVILCKDKITGQECAVKVISKRQVKQKTDKESLLREVQLLKQLDHPNIMKLYEFFEDKGYFYLVGEVYTGGELFDEIISRKRFSEVDAARIIRQVLSGITYMHKNKIVHRDLKPENLLLESKSKDANIRIIDFGLSTHFEASKKMKDKIGTAYYIAPEVLHGTYDEKCDVWSTGVILYILLSGCPPFNGANEYDILKKVEKGKYTFELPQWKKVSESAKDLIRKMLTYVPSMRISARDALDHEWIQTYTKEQISVDVPSLDNAILNIRQFQGTQKLAQAALLYMGSKLTSQDETKELTAIFHKMDKNGDGQLDRAELIEGYKELMRMKGQDASMLDASAVEHEVDQVLDAVDFDKNGYIEYSEFVTVAMDRKTLLSRERLERAFRMFDSDNSGKISSTELATIFGVSDVDSETWKSVLSEVDKNNDGEVDFDEFQQMLLKLCGN”, for which the “soluble on expression in E. coli” value is reported as “soluble”.
“MRVDIWSDVVCPFCYIGKKRLEHVAAEAGIELDVHWHSFELDPDAPTSHDTSNTERLAKKYGRTFEEMQEMQQNIASMAAQEGIDFQWQKANSGNSFNAHRIIHLAQSKGLGNEAEEAFFHAYMTEGLAIGEREVVEEIASRIGLDHAEVEFVLDSNELSDFVRHDEKIAHEQLNISGVPFFVFDQKLALSGAQPKEVFLQVLQKALTQRENDAVAEASSDAVCSDDSCDIPQKS”: the “soluble on expression in E. coli” value is on record as “not soluble”.
“MGSSHHHHHHSSGRENLYFQGHMHANIRYSFGGDEHLFAEVAEAMSLEAFFRGMAITRAIEALQLPGVLDVCLANASFQVRFDPDRLAPQALLETVRGLEAEAVAARSIETRIVEVPVLYNDPWTHETLMRFRDRHQDPDSTDLEYAARINGYADVQAFIQAHSGTPWFVSMVGFVAGLPFMYQMVERERQLQVPKYLRPRIDTPKLTLGHGGCFGCIYSVRGAGGYQMFGVTPAPIFDPRQGLPYLEESMVFFRAGDIVQFRPIERTEYEHMAAEVESGTFDLRIRPVSFDLDAFLADPRGCTQHLQEVLHVD”: the “soluble on expression in E. coli” value is given as “soluble”.
As for “MPHFTKRPAQPQAALAEAAGLRWLAEASSAVAQVVSADAEQITTVGVETQLPTPDAAFKAGEELARIHLAGAPAFGCPPAGWAGLNYIGTQGQACLSTPTWGVFYSQQRVLPFARRARRRNHLTEHALWVVEAACDLISELPDDVPPARIHGDLWFGNLLFGTDGPVFIDPAAHGGHPETDLAMLDVFGAPYLDEIREGYLSINPLPDGWRERTPMHQLHPLAVHAASHGPSYGVELLHAAKATLKLLDLEHHHHHH”, the “soluble on expression in E. coli” value is listed as “not soluble”.
Regarding “MTGRTGGNGSTQAQPERVMLVGVMLDKDGTGSSAARLNGFQTALAEAVELVKAAGGDSVRVETAKRDRPHTALFVGTGKAAELSEAVAADGIDLVVFNHELTPTQERNLEKELKCRVLDRVGLILAIFARRARTQEGRLQVELAQLSHLAGRLIRGYGHLQSQRGGIGMKGPGETKLETDRRLIAHRINALKKQLANLKKQRALRRKSRESGTIKTFALVGYTNVGKSSLFNRLTKSGIYAKDQLFATLDTTARRLYISPECSIILTDTVGFVSDLPHKLISAFSATLEETAQADVLLHVVDAAAPNSGQQIEDVENVLQEIHAGDIPCIKVYNKTDLLPSEEQNTGIWRDAAGKIAAVRISVAENTGIDALREAIAESCAAAPLEHHHHHH”, the “soluble on expression in E. coli” value was “not soluble”.
Regarding “GPGSMDKTKDSLIAVYDLGGGTFDISVLEIAGGVFEVKATNGDTHLGGEDFDLALSDYILEEFRKTSGIDLSKERMALQRVREAAEKAKCELSSAMETEVNLPFITANADGAQHIQMHISRSKFEGITQRLIERSIAPCKQCMKDAGVELKEINDVVLVGGMTRMPKVVEEVKKFFQKDPFRGVNPDEAVALGAATLGGVLRGKASDLILVDVTPLSLGTSVVGDVFTRMIPKNTTIPCMRSHIFTTVDDGQTAIKFKVFQGEREIASENQIRGEFDLSGIPPAPRGVPQIEVTFDIDANGICHVTAKDKATGKTQNITITANGGLSKEQIEQMIRDSEQHAEADRVKRELVEVRNNAETQLTTAERQLGEWKYVSDAEKENVKTLVAELRKAMENPNVAKDDLAAATDKLQKAVMECGRTEYQQAAAANSGQC”, the “soluble on expression in E. coli” value was “not soluble”.
As for “MGSDKIHHHHHHMNDLSRSPYILEMRNVSKTFPGVKALDGINLKVKRGTIHALMGENGAGKSTLMKILYGIYTPDAGGELILDDKPFKPSAPIDAIRTGLTMVPQEISPAGNLTIADNFYLGREITRSKFFLNQKEMDCKTAEILNELGIPMDVTAKMSDVSVAKAQLVAIATAVSNDAKVIIMDEPTTALTEVEVEQLYKIIETVRQRGISIIFISHKLDEVFRVSDEITVIRDGQYVGTKLTSEVTKDELISMMVGRDMSEMFQRERIVISDEVVLEIKNFSRAGKYHDINFQVRRGEIFGIAGLVGAGRSEIVEGLFGYKLADSGEIYVHGEKADIKTPLDAMKYKIGFVTEDRKLTGLFLNLSITDNMIMPRMSPYLENFLVSVTKAQKSANAQKDKLKIKAPNVEVITNNLSGGNQQKVLLARWLLLEPDILILDEPTKGIDVGAKAELYKLMVELAKQGKSIIMITSDMLELLSMSDRVMVMHEGRVAGIIPQEELTQERVLELASGLGQV”, the “soluble on expression in E. coli” value is given as “not soluble”.
With “MSSKLVLVLNCGSSSLKFAIIDAVNGEEYLSGLAECFHLPEARIKWKMDGNKQEAALGAGAAHSEALNFIVNTILAQKPELSAQLTAIGHRIVHGGEKYTSSVVIDESVIQGIKDAASFAPLHNPAHLIGIEEALKSFPQLKDKNVAVFDTAFHQTMPEESYLYALPYNLYKEHGIRRYGAHGTSHFYVTQEAAKMLNKPVEELNIITCHLGNGGSVSAIRNGKCVDTSMGLTPLEGLVMGTRSGDIDPAIIFHLHDTLGMSVDAINKLLTKESGLLGLTEVTSDCRYVEDNYATKEDAKRAMDVYCHRLAKYIGAYTALMDGRLDAVVFTGGIGENAAMVRELSLGKLGVLGFEVDHERNLAARFGKSGFINKEGTRPAVVIPTNEELVIAQDASRLTA” the entry was “soluble”; with “GMSSTSSKVVLHPTMLNCMRGLHKKAVLPEPVLDRGIELARAFVGGRRARGQRVERQPDVAAACLMIAAEEAQQPLPLAEVRCLDSSLGDVELRRADIVRELHLEDSERRLRDTFADNLLVKYILKLGLQVSLYLPHCKRLLTALGRVEALAGLTVADRVTTALLLARTAQTLSWEQGTHISKGKECDLGMEAIYANFSSKAHLEVTKVNKIMHLAVDVLPLIQAAFQDCGEPTAGKRKVDKNSEPEASGGTKRVKREET”, “soluble”.
Turning to “INFPILDEPLVLSNATILTIEDVSVYSSLVKHFYQYDVDEHLKLFDDKQKSLKATELMLVTDILGYDVNSAPILKLIHGDLENQFNEKPEVKSMVEKLAATITELIAFECLENELDLEYDEIKILELIKALGVKIETQSDTIFEKCFEIIQVYHYLTKKNLLVFVNSGAYLTKDEVIKLCEYINLMQKSVLFLEPRRLYDLPQYVIDKDYFLIGEN”, the “soluble on expression in E. coli” value was “not soluble”.
The value for “MGSDKIHHHHHHVTYGDNVKPINDALLTEFPKEKRYLVYDKKFVKNPEAWSAEYALPYRRLRFIRLAYLLATSKHLFIDNYIGEYSVAPIRQGTKRIQLWHAAGTLKKFGLTSSRSLMVPKHVLRRFKRVYQRYGDFIVPGEACAKQFMAPHDLHRTVFKTLGVPRTDYWFNEQHQTVKKQLSDIYVKPKRRILLYAPTYREYNGMEGQTVRQLEQLTDQGWTILVKLHPTVRSMFTHQKAHVHFVTDEYSINDYLLITDVLVTDYSSIPFESCLLGVPTVLYTPDIDTYRQIPGIIDSYPDPLPVTCTDQFEIMLNWINSDVSLQESRMAMEQFKTIWYTEQPGQATRRIVDHYYRKVR” was “not soluble”; that for “MSKRPVIESEKPAWHDEDDDNMVVAVPKKVKMTMRVELKRTTDEEHGELDSKEYVGRLQEAFRKRHGGTPKWAKAAAGDEEEGSLLKTAAGYLAKDVNLPKTTIHTTLIKDFNIGHRYTRGITVVKFHKTRPVLIVADQGGNVQLFKVSREVKKDRFLQSANFSKFPIDSLEIADKGHSVICSSSRKEYLMQYNMETREVTQLKPPNTVPKQGIRLFAISHDSQFLAIAGHNSHIYVLHATSMEHITTISLPANASEIKFFPSHSREIWIICETGQIVIANIGLPGTKSSQHTFTDDGAVHGTTLAISQHGDYFATGSDTGIVNVYSGNDCRNSTNPRPLFNVSNLVTAVSSIAFNSDAQLMAICSNVKDNHLRLVHVASQTTFKNFPERNGKVTHARCVEFSPNGGYMAVGNDDGRLHVFEIHHFTDY” was “not soluble”; that for “QTNSPASIPHLILELLKCEPDEPQVQAKIMAYLQQEQSNRNRQEKLSAFGLLCKMADQTLFSIVEWARSSIFFRELKVDDQMKLLQNCWSELLILDHIYRQVAHGKEGTIFLVTGEHVDYSTIISHTEVAFNNLLSLAQELVVRLRSLQFDQREFVCLKFLVLFSSDVKNLENLQLVEGVQEQVNAALLDYTVCNYPQQTEKFGQLLLRLPELRAISKQAEDYLYYKHVNGDVPYNNLLIEMLHAKRA” was “soluble”.
“MLDIKFLRTNFEEVKAKLQHRGEDLTDFGRFEELDTRRRELLVQTEELKSKRNEVSQQISVLKREKKDAEALILEMREVGEKVKDLDNELRTVEEDLERLMLSIPNIPHESAPVGETEDDNVVARTWGEVKEFAFEPKPHWDLATDLGILDFERAGKVTGSRFVFYKGAGARLERALISFMLDLHTDEHGYEEVLPPYMVNRASMTGTGQLPKFEEDAFRIESEDYFLIPTAEVPVTNMHRDEILNKEQLPIRYAAFSSCFRSEAGSAGRDTRGLIRQHQFNKVELVKFVKPEDSYEELEKLTNDAERVLQLLELPYRVMSMCTGDLGFTAAKKYDIEVWIPSYGTYREISSCSNFEAFQARRANIRFRREPNGKPEHVHTLNGSGLAIGRTVAAILENYQQEDGTIIIPEVLRPYMGGKTVIK”: the “soluble on expression in E. coli” value was “soluble”.
With “MGSDKIHHHHHHMHNHPAKRINSIKLCLDVKVALTPQTESRDMAASSKDAAFWSKISRKYAADPIRNMDGYLQTLDRTKSYLKPEDHVLEIGCGTGSTALLLAPHVAHITGTDLAPGMIEIAAEKRAKEGLENVTFKVAETLDHNPQDGAYDAILAHNLLHLLHDLDQSLQRIAALTKTGGVFISKTVCAPKAGGIKYALIRALAIPLMQRIGKAPYVNFISVPDLERRIERAGFEICEVISQPGLMQSHYVVARKL” the entry was “not soluble”; with “MKITHCKLKKEVQKEPLRSFVPEVTARSAADILGIHPDSAALFYRKIRTVTNHRLALAADEVFECPAGPGASCFGVRRKGRRGRGAAGKAVVFGIPKRNGRAYTVAEDDAEPETLPPAVKKKIMPDGIVYADSPGSRGKSDAGGFTRCRINRSKEFADRRNHINGIGNFWNQAKRALRKYNGIDRKPFPPLLRECEFRFNFGTPSRQLKILRDRCGILEHHHHHH”, “soluble”; with “GPGSMEATVAPSTGLRQLRRVRRARTQYERLQRPDDIQPGYPIPSIEGWVLFFSNLPETTTQEDIANYLVSFKEGDPDYFGAITDIKIPLNADCFCAGYALVELEDRAGYERAIAELNGTVFPSADKPLVVAPTFLGEEEEQEPQAEEVAPGEKRARD”, “soluble”.
With “KQVENYDSWEDLVSSIDTIERKDDGTLEIYLTWKNGAISHHPSTITNKKCPQKMLQFYESHLTFRENE”, the “soluble on expression in E. coli” value is given as “soluble”.
The value for “MIAIIDYGMGNIRSVEQALKYIGAAYIVTSDKEEIFRSDGVILPGVGAFPKAMDILEEKDLVRVLQEIGRSRKPLLGICLGMQLLFEKSEELQDCNGLSLLPGVIRKLKVPYKIPHMGWNELKKEGEIALWNGVEDGSFVYYVHSYYADCPNEIVYGISDYGVKVPGFVAKGNIYGAQFHPEKSGDIGMQMLKNFKGVVETWKSSQLSI” was “soluble”; that for “MSKLEELDIVSNNILILKKFYTNDEWKNKLDSLIDRIIKAKKIFIFGVGRSGYIGRCFAMRLMHLGFKSYFVGETTTPSYEKDDLLILISGSGRTESVLTVAKKAKNINNNIIAIVCECGNVVEFADLTIPLEVKKSKYLPMGTTFEETALIFLDLVIAEIMKRLNLDESEIIKRHCNLL” was “soluble”.
